Data: patent publication US20210403602A1 (Bristol-Myers Squibb, published 2021)

Tests used:
[1] = target: T1, denatured recombinant human IDO protein with a 6-His tag and thrombin site linker (His-Tb-IDO) (human, UniProt P14902 1-403); assay: direct ELISA of hybridoma supernatants on plates coated with denatured His-Tb-IDO at 2 ug/mL
T1 construct: Immunogen and ELISA coating antigen, used in denatured form; also called denatured tagged antigen
Method: After eleven days, hybridoma culture supernatants were collected and screened by direct ELISA for specific binding to denatured His-Tb-IDO. Briefly, 96-well polystyrene microplates (Corning 9018) were coated overnight at 4C with 60 uL of denatured tagged antigen at 2 ug/mL in PBS. The plates were blocked with 200 uL/well of assay buffer containing 0.5% bovine serum albumin in PBS and washed. After the blocking step, 100 uL of supernatant from individual hybridoma culture wells were added and incubated for one hour on a plate shaker at room temperature. The plates were washed three times with PBS and 100 ul of F(ab′)₂ fragment goat anti-mouse IgG Fcγ (1:1000 dilution) (Jackson ImmunoResearch 115-036-071) was added and incubated for 1 hour at RT and washed again with PBS. The plates were then developed with 100 ul/well of ABTS HRP substrate (Surmodics ABTS-1000-01) for 5 to 10 minutes, and analyzed using a PerkinElmer EnVision microplate reader at 405 nm. The data was analyzed using TIBCO Spotfire.

[2] = target: T2, human Indoleamine 2,3-dioxygenase (IDO) in fixed cells and tissues (human, UniProt P14902 1-403); assay: immunohistochemistry on FFPE H1048 cells and cervical SCC tissue, HALO image analysis; antibody concentration printed on the sheet as 0.5 ug/ml, given in the legend as 0.05 ug/ml
T2 construct: also called IDO1; human IDO
Method: To further develop a user and clinical friendly assay, mAb 1E7 was optimized for automated IHC using the Leica BondRX platform. The Bond Polymer Refine Detection System (Leica, catalog #DS9800) was used for the detection of IDO1 and all incubations were carried out at room temperature. Briefly, slides were deparaffinized and rehydrated following routine histology procedures. The slides were loaded onto the Leica BondRX automated IHC stainer and antigen retrieved with either the Bond Epitope Retrieval Solution 1 (Leica, catalog #AR9961) or 2 (Leica, catalog #AR9640) for 20 minutes at 95° C. Peroxidase block from the Bond Polymer Refine Detection kit (Leica, catalog #DS9800) was applied to the slides for 10 min, followed by non-specific binding blocking using protein block (Agilent-DAKO, catalog #X0909) supplemented with 0.5% human gamma globulins (Sigma, catalog #G-4386) for 20 min. Primary antibody 1E7 was incubated at 0.03 or 0.05 μg/ml for 60 minutes, and followed by rabbit anti-mouse linker and then anti-rabbit Poly-HRP-IgG from the Bond Polymer Refine Detection Kit for 30 min each step. […] Whole slide digital images of stained slides were captured and viewed using Aperio AT2 ScanScope and e-Slide Manager (Leica), and then analyzed by a pathologist for manual score or with Halo software (Indica) for quantitative image analysis.

T1 sequence (P14902 other isoform, or with tags, fused parts or gaps limits assumed): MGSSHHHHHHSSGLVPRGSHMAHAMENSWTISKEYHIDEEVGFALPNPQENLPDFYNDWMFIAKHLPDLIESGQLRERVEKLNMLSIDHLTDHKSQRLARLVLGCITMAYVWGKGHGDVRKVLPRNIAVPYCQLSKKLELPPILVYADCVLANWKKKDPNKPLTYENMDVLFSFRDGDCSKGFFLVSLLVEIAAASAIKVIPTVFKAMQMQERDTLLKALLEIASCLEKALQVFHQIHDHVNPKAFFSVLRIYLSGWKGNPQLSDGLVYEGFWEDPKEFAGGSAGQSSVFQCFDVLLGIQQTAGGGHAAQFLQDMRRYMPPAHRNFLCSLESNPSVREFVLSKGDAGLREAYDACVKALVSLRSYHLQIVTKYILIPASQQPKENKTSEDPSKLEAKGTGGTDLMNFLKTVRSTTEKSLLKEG
T2 sequence (P14902 whole entry): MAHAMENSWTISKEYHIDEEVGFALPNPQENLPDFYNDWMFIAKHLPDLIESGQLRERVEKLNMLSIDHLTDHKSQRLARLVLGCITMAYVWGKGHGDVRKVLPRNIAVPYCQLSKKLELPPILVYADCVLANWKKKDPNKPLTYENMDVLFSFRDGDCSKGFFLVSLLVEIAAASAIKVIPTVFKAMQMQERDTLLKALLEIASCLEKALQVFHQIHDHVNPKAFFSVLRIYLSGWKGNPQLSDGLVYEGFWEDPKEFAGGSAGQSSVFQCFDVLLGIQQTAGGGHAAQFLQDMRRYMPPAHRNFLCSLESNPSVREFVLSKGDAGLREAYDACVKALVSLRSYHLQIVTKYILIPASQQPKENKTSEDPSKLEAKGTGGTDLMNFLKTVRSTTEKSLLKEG

B1: anti-IDO monoclonal antibody 1E7 (antibody, mouse IgG1, kappa, V domains shown)
VH: QVQLQQSGAELAKPGASVKMSCKTSGYTFTSYWMHWVKQRPGQGLEWIGYINPTTGYTDCNQKFKDKATLTADKSSNTAYLQLSSLTSEDSAVYYCARSAMFGRGWGQGTTLTVSS
VL: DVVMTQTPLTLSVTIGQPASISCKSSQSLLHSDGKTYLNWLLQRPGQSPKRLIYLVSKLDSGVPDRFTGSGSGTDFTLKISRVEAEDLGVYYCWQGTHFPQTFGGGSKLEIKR
notes: also called mAb 1E7; IDO mAb 1E7
binding result [1]: binds | binding result [2]: binds
